Measured values from the Human Domainome abundance scans (Beltran et al. 2025).
± gives the uncertainty stated by the source.

B1: Tyrosine-protein kinase Lck, residues 63 to 120; numbered along this chain, P06239 (parent)
chain: DNLVIALHSYEPSHDGDLGFEKGEQLRILEQSGEWWKAQSLTTGQEGFIPFNFVAKAN

Variants of: B1
Experiment: abundance fitness (aPCA) (normalised: wild type 0, dead -1); higher = more abundant; growth selection in yeast, the domain comes from the species named
Details: Homo sapiens

Row | Variant | abundance fitness
1 | L26R | -0.726 ± 0.1
2 | L26C | -1.28 ± 0.31
3 | L26Y | -0.929 ± 0.26
4 | L26A | -0.987 ± 0.2
5 | A57F | -0.394 ± 0.18
6 | A57Q | -0.112 ± 0.15
7 | A57M | -0.195 ± 0.16
8 | A57H | -0.057 ± 0.15
9 | A57S | -0.098 ± 0.086
10 | A57T | 0.008 ± 0.093
11 | I28A | -0.554 ± 0.11
12 | I28S | -0.645 ± 0.084
13 | I28T | -0.683 ± 0.16
14 | I28H | -1.03 ± 0.31
15 | I28P | -0.885 ± 0.15
16 | I28W | -0.941 ± 0.29
17 | N52G | -0.067 ± 0.07
18 | N52E | 0.029 ± 0.12
19 | N52W | -0.278 ± 0.12
20 | N52Y | -0.311 ± 0.12
21 | N52V | -0.709 ± 0.11
22 | N52A | -0.202 ± 0.082
23 | T43I | -0.941 ± 0.26
24 | T43K | -0.698 ± 0.16

Row | Variant | abundance fitness
25 | T43E | -0.643 ± 0.13
26 | T43R | -0.624 ± 0.085
27 | T43H | -0.622 ± 0.24
28 | T43A | -0.617 ± 0.11
29 | T43V | -0.854 ± 0.097
30 | T43P | -0.909 ± 0.16
31 | T43N | -0.277 ± 0.21
32 | P50H | -0.474 ± 0.15
33 | P50M | -1.03 ± 0.18
34 | P50S | -0.796 ± 0.12
35 | P50T | -0.851 ± 0.15
36 | P50G | -0.888 ± 0.1
37 | P50I | -0.874 ± 0.24
38 | V4F | -0.054 ± 0.39
39 | V4L | -0.04 ± 0.26
40 | V4A | 0.123 ± 0.38
41 | P12E | -0.755 ± 0.1
42 | P12G | -0.497 ± 0.09
43 | P12Q | -1 ± 0.23
44 | P12H | -0.846 ± 0.3
45 | P12D | -0.439 ± 0.27
46 | P12V | -0.717 ± 0.11
47 | T42F | -0.305 ± 0.14
48 | T42H | -0.08 ± 0.15

Row | Variant | abundance fitness
49 | T42A | -0.035 ± 0.082
50 | T42M | -0.101 ± 0.15
51 | T42P | -0.715 ± 0.14
52 | T42Y | -0.129 ± 0.15
53 | T42L | -0.12 ± 0.097
54 | S40G | -0.795 ± 0.087
55 | S40H | -0.115 ± 0.15
56 | S40A | -0.382 ± 0.088
57 | S40D | -0.626 ± 0.14
58 | S40V | -0.641 ± 0.088
59 | S40L | -0.538 ± 0.083
60 | S40N | -0.135 ± 0.15
61 | S40E | -0.789 ± 0.13
62 | S40P | -0.793 ± 0.15
63 | A55F | -0.369 ± 0.13
64 | A55C | -0.141 ± 0.12
65 | A55I | -0.084 ± 0.14
66 | A55Y | -0.261 ± 0.19
67 | A55M | -0.12 ± 0.12
68 | G47E | -0.831 ± 0.12
69 | G47V | -0.807 ± 0.09
70 | G47T | -0.831 ± 0.15
71 | G47W | -0.831 ± 0.15
72 | G47H | -0.81 ± 0.21

Row | Variant | abundance fitness
73 | G47D | -0.912 ± 0.15
74 | G47P | -0.687 ± 0.15
75 | E21R | -0.052 ± 0.08
76 | E21G | -0.349 ± 0.075
77 | E21F | -0.515 ± 0.21
78 | E21S | -0.042 ± 0.13
79 | E21N | -0.248 ± 0.2
80 | E46N | -0.217 ± 0.16
81 | E46V | 0.042 ± 0.083
82 | E46P | -0.745 ± 0.15
83 | E46L | -0.157 ± 0.077
84 | E46Y | -0.316 ± 0.12
85 | G23L | -0.832 ± 0.12
86 | G23W | -0.648 ± 0.13
87 | G23Q | -0.903 ± 0.2
88 | G23T | -0.917 ± 0.23
89 | G23F | -0.573 ± 0.18
90 | G23K | -0.792 ± 0.2
91 | G23D | -0.477 ± 0.1
92 | G23E | -0.823 ± 0.17
93 | F20R | -0.976 ± 0.11
94 | F20S | -0.949 ± 0.15
95 | F20V | -0.222 ± 0.072
96 | F20K | -0.705 ± 0.22

Row | Variant | abundance fitness
97 | H14L | -0.267 ± 0.082
98 | H14E | -0.051 ± 0.11
99 | H14W | -0.328 ± 0.086
100 | H14K | 0.072 ± 0.11
101 | H14P | -0.793 ± 0.19
102 | H14A | 0.027 ± 0.077
103 | H14R | 0.039 ± 0.062
104 | Q25T | 0.078 ± 0.13
105 | Q25V | -0.017 ± 0.073
106 | Q25W | -0.169 ± 0.1
107 | Q25D | -0.357 ± 0.14
108 | Q25A | -0.165 ± 0.089
109 | Q25Y | -0.047 ± 0.18
110 | Q25H | -0.143 ± 0.27
111 | S32G | -0.071 ± 0.091
112 | S32N | 0.101 ± 0.14
113 | S32T | 0.05 ± 0.11
114 | S32Q | 0.182 ± 0.22
115 | S32E | 0.182 ± 0.13
116 | D1T | -0.335 ± 0.45
117 | D1W | -0.331 ± 0.19
118 | D1A | -0.337 ± 0.15
119 | D1G | -0.115 ± 0.12
120 | Y10C | -0.415 ± 0.12

Row | Variant | abundance fitness
121 | Y10G | -0.717 ± 0.086
122 | Y10T | -0.604 ± 0.12
123 | Y10L | -0.488 ± 0.092
124 | Y10K | -0.113 ± 0.17
125 | Y10M | -0.444 ± 0.15
126 | Y10F | -0.241 ± 0.14
127 | Y10S | -0.662 ± 0.098
128 | W35G | -0.303 ± 0.11
129 | W35N | -0.128 ± 0.15
130 | E30L | -0.601 ± 0.12
131 | E30R | -0.285 ± 0.085
132 | E30F | -0.45 ± 0.18
133 | E30C | -0.265 ± 0.12
134 | E30G | -0.21 ± 0.063
135 | E30V | -0.17 ± 0.079
136 | E30Q | -0.161 ± 0.15
137 | G16A | -0.366 ± 0.09
138 | L41T | -0.149 ± 0.11
139 | L41N | -0.624 ± 0.24
140 | L41Q | -0.167 ± 0.2
141 | L41S | -0.478 ± 0.077
142 | L41M | -0.227 ± 0.13
143 | L41R | -0.513 ± 0.073
144 | Q39S | -0.297 ± 0.092

Row | Variant | abundance fitness
145 | Q39R | -0.017 ± 0.073
146 | K56W | -0.095 ± 0.1
147 | K56R | -0.09 ± 0.067
148 | K56C | -0.117 ± 0.099
149 | K56D | -0.108 ± 0.11
150 | K56E | 0.022 ± 0.12
151 | K56N | 0.055 ± 0.16
152 | K56I | -0.233 ± 0.13
153 | K56Q | -0.174 ± 0.11
154 | K56G | -0.123 ± 0.066
155 | K56T | -0.095 ± 0.099
156 | L7V | -0.161 ± 0.073
157 | L7Q | -0.131 ± 0.17
158 | L7T | -0.224 ± 0.14
159 | L7K | -0.232 ± 0.14
160 | L7A | -0.249 ± 0.13
161 | L7F | -0.705 ± 0.17
162 | L18F | -0.449 ± 0.18
163 | L18Y | -0.725 ± 0.17
164 | L18K | -0.946 ± 0.31
165 | L18D | -0.779 ± 0.12
166 | L18V | -0.441 ± 0.076
167 | L18E | -0.757 ± 0.11
